The values that follow come from PMC7314969, “Natural Transformation in Deinococcus radiodurans: A Genetic Analysis Reveals the Major Roles of DprA, DdrB, RecA, RecF, and RecO Proteins”.

T1: DprA (DrDprA) (Deinococcus radiodurans R1 ATCC 13939, UniProt Q9RY31 1-370)
T1 sequence: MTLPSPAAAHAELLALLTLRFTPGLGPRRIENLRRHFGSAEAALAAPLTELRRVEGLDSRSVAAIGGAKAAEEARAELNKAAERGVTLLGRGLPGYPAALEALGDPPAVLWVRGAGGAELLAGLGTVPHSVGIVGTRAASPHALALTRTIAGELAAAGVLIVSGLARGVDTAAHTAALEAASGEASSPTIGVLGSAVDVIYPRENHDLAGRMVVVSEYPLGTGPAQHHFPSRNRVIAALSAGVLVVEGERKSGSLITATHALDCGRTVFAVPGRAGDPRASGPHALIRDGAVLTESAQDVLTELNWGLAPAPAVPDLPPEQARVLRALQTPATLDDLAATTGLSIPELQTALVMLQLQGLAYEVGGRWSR

B1: dT100 (ssDNA)
DNA: TTTTTTTTTTTTTTTTTTTTTTTTTTTTTTTTTTTTTTTTTTTTTTTTTTTTTTTTTTTTTTTTTTTTTTTTTTTTTTTTTTTTTTTTTTTTTTTTTTTT

The target of this series is T1, DprA (DrDprA). The series is described as follows: fluorescence anisotropy; 2.5 mM Mg2+; apparent Kd; 25 mM NaCl, 20 mM Tris pH 7.5, 2.5 mM MgCl2, 2.5% (v/v) glycerol, 25 nM 5'-fluorescein ssDNA, 20 C; 35-mers of varying GC content (Fig. 5B) also tested, affinity rises with GC, but number, sequences and values not in the material. The conditions noted are these: protein: recombinant; tags: C-terminal His6; chain copies: 2; label: 5'-fluorescein.
Turning to TTTTTTTTTTTTTTTTTTTT (ssDNA) [dT20], the Kd amounted to 7.5 µM.

For the molecule TTTTTTTTTTTTTTTTTTTTTTTTTTTTTTTTTTTTTTTTTTTTTTTTTT (ssDNA) [dT50], the Kd came out at 1.2 µM.

Take B1: the Kd amounted to 1 µM.
